Assays:
[1] = target: FGFR2 isoform FGFR2-IIIb (FGFR2b), on the surface of cancer cell lines (UniProt P21802); experiment: flow cytometry on HARA cells (squamous lung cancer), detected with APC anti-human IgG1
[2] = target: FGFR2 isoform FGFR2-IIIb (FGFR2b), on the surface of cancer cell lines (UniProt P21802); experiment: flow cytometry on EPLC-272H cells (squamous lung cancer), detected with APC anti-human IgG1
[3] = target: FGFR2 isoform FGFR2-IIIb (FGFR2b), on the surface of cancer cell lines (UniProt P21802); experiment: flow cytometry on HCC1569 cells (TNBC), detected with APC anti-human IgG1
[4] = target: FGFR2 isoform FGFR2-IIIb (FGFR2b), on the surface of cancer cell lines (UniProt P21802); experiment: flow cytometry on KATOIII cells (gastric cancer, positive control), detected with APC anti-human IgG1
[5] = target: FGFR2 isoform FGFR2-IIIb (FGFR2b), on the surface of cancer cell lines (UniProt P21802); experiment: flow cytometry on SNU16-Luc cells (gastric cancer, positive control), detected with APC anti-human IgG1
[6] = target: FGFR2 isoform FGFR2-IIIb (FGFR2b), on the surface of cancer cell lines (UniProt P21802); experiment: flow cytometry on LUDLU1 cells (squamous lung cancer), detected with APC anti-human IgG1
[7] = target: FGFR2 isoform FGFR2-IIIb (FGFR2b), on the surface of cancer cell lines (UniProt P21802); experiment: flow cytometry on SNU16 cells (gastric cancer, positive control), detected with APC anti-human IgG1
[8] = target: FGFR2 isoform FGFR2-IIIb (FGFR2b), on the surface of cancer cell lines (UniProt P21802); experiment: flow cytometry on SW900 cells (squamous lung cancer), detected with APC anti-human IgG1
[9] = target: FGFR2 isoform FGFR2-IIIb (FGFR2b), on the surface of cancer cell lines (UniProt P21802); experiment: flow cytometry on BT20 cells (TNBC), detected with APC anti-human IgG1
[10] = target: FGFR2 isoform FGFR2-IIIb (FGFR2b), on the surface of cancer cell lines (UniProt P21802); experiment: flow cytometry on LC1F cells (squamous lung cancer), detected with APC anti-human IgG1
[11] = target: FGFR2 isoform FGFR2-IIIb (FGFR2b), on the surface of cancer cell lines (UniProt P21802); experiment: flow cytometry on SW1573 cells (squamous lung cancer), detected with APC anti-human IgG1
[12] = target: FGFR2 isoform FGFR2-IIIb (FGFR2b), on the surface of cancer cell lines (UniProt P21802); experiment: flow cytometry on HCC38 cells (TNBC), detected with APC anti-human IgG1
[13] = target: FGFR2 isoform FGFR2-IIIb (FGFR2b), on the surface of cancer cell lines (UniProt P21802); experiment: flow cytometry on KNS-62 cells (squamous lung cancer), detected with APC anti-human IgG1
[14] = target: FGFR2 isoform FGFR2-IIIb (FGFR2b), on the surface of cancer cell lines (UniProt P21802); experiment: flow cytometry on NCIH2170 cells (squamous lung cancer), detected with APC anti-human IgG1
[15] = target: FGFR2 isoform FGFR2-IIIb (FGFR2b), on the surface of cancer cell lines (UniProt P21802); experiment: flow cytometry on HCC1937 cells (TNBC), detected with APC anti-human IgG1
[16] = target: FGFR2 isoform FGFR2-IIIb (FGFR2b), on the surface of cancer cell lines (UniProt P21802); experiment: flow cytometry on HCC1806 cells (TNBC), detected with APC anti-human IgG1
[17] = target: FGFR2 isoform FGFR2-IIIb (FGFR2b), on the surface of cancer cell lines (UniProt P21802); experiment: flow cytometry on HCC1187 cells (TNBC), detected with APC anti-human IgG1

B1: bemarituzumab (antibody, human IgG1, kappa, V domains shown)
VH: QVQLVQSGAEVKKPGSSVKVSCKASGYIFTTYNVHWVRQAPGQGLEWIGSIYPDNGDTSYNQNFKGRATITADKSTSTAYMELSSLRSEDTAVYYCARGDFAYWGQGTLVTVSS
VL: DIQMTQSPSSLSASVGDRVTITCKASQGVSNDVAWYQQKPGKAPKLLIYSASYRYTGVPSRFSGSGSGTDFTFTISSLQPEDIATYYCQQHSTTPYTFGQGTKLEIKR
modifications: afucosylated: glycan at Asn297 (EU numbering) lacks core fucose
Mean Fluorescence Intensity by FACS [1]: 401 MFI | Mean Fluorescence Intensity by FACS [2]: 759 MFI | Mean Fluorescence Intensity by FACS [3]: 1360 MFI | Mean Fluorescence Intensity by FACS [4]: 20400 MFI | Mean Fluorescence Intensity by FACS [5]: 7960 MFI | Mean Fluorescence Intensity by FACS [6]: 638 MFI | Mean Fluorescence Intensity by FACS [7]: 7800 MFI | Mean Fluorescence Intensity by FACS [8]: 10.3 MFI | Mean Fluorescence Intensity by FACS [9]: 252 MFI | Mean Fluorescence Intensity by FACS [10]: 123 MFI | Mean Fluorescence Intensity by FACS [11]: -1.2 MFI | Mean Fluorescence Intensity by FACS [12]: 346 MFI | Mean Fluorescence Intensity by FACS [13]: 572 MFI | Mean Fluorescence Intensity by FACS [14]: 153 MFI | Mean Fluorescence Intensity by FACS [15]: 690 MFI | Mean Fluorescence Intensity by FACS [16]: 401 MFI | Mean Fluorescence Intensity by FACS [17]: -6 MFI
